The star is where a group is joined. Cy3 = disulfo-cyanine carboxylic acid dye; Cy5 = disulfo-cyanine carboxylic acid dye; Palmitoyl = CCCCCCCCCCCCCCCC(=O)*
T1: non-labelled peptide amphiphile (palmitic acid tail, six alanines, three glutamic acids)
T1 construct: designed peptide amphiphile, not a stretch of a natural protein; also called non-labelled PA; unlabelled PA; source: synthetic peptide (Fmoc solid-phase synthesis, purified by reversed-phase HPLC)
T1 peptide: Palmitoyl-AAAAAAEEE-NH2

B1: peptide amphiphile labelled with the sulfonated cyanine dye Cy5 (peptide)
peptide: Palmitoyl-AAAAAAEEEK(Cy5)-NH2
notes: designed peptide amphiphile; Made on MBHA rink amide resin, so the C-terminus is probably an amide (surmised); also called Cy5-PA; PA-Cy5; source: synthetic peptide (Fmoc solid-phase synthesis, purified by reversed-phase HPLC)
B2: peptide amphiphile labelled with the sulfonated cyanine dye Cy3 (peptide)
peptide: Palmitoyl-AAAAAAEEEK(Cy3)-NH2
notes: designed peptide amphiphile; Made on MBHA rink amide resin, so the C-terminus is probably an amide (surmised); also called Cy3-PA; PA-Cy3; source: synthetic peptide (Fmoc solid-phase synthesis, purified by reversed-phase HPLC)

Columns and labels:
[1] = target: T1, non-labelled peptide amphiphile …; test: FRET or BRET; nanofibres co-assembled from non-labelled PA with Cy3-PA (1 mol%) and Cy5-PA (0, 0.1, 0.2 and 0.5 mol%); 10 mM HEPES pH 7.5, NaCl 150 mM, final PA concentration 0.5 mM; emission spectra at the Cy3 excitation wavelength 520 nm; settings: both partners purified
[2] = target: B2; test: as above; settings: both partners purified

Row | binding result [1] | binding result [2] | Binder
1 | binds | binds | B1
2 | binds | – | B2

Source: paper PMC4874009, “Super-resolution microscopy reveals structural diversity in molecular exchange among peptide amphiphile nanofibres” (Nature Communications, 2016)
